Experimental data published in PMC11004252.

Target: phospho-Ser 2 carboxy-terminal domain (CTD) RNA polymerase II (human (endogenous in hSAECs)), P24928
Experiment: proximity ligation; Duolink in situ PLA, mouse anti-IRF1 and rabbit anti-pSer2 Pol II Abs, fixed and permeabilized hSAECs, mock or RSV infected (MOI 1, 24 h), solvent
Conditions: remark: other sources report otherwise

- PLA foci/nucleus (RSV infected): 24 foci/nucleus
- PLA foci/nucleus (mock infected): 6.3 foci/nucleus
- fold increase of PLA complex, RSV against mock: 25 fold
- percent of cells with PLA complexes (uninfected): > 90 % of cells
B1: interferon regulatory factor 1 (IRF1), P10914 1-325 (natural protein)
chain: MPITRMRMRPWLEMQINSNQIPGLIWINKEEMIFQIPWKHAAKHGWDINKDACLFRSWAIHTGRYKAGEKEPDPKTWKANFRCAMNSLPDIEEVKDQSRNKGSSAVRVYRMLPPLTKNQRKERKSKSSRDAKSKAKRKSCGDSSPDTFSDGLSSSTLPDDHSSYTVPGYMQDLEVEQALTPALSPCAVSSTLPDWHIPVEVVPDSTSDLYNFQVSPMPSTSEATTDEDEEGKLPEDIMKLLEQSEWQPTNVDGKGYLLNEPGVQPTSVYGDFSCKEEPEIDSPGGDIGLSLQRVFTDLKNMDATWLDSLLTPVRLPSIQAIPCAP
modifications: here or on the partner: phospho-Ser 2 of the carboxy-terminal domain (CTD)
